Test results reported in the RNAGym collection of RNA variant scans (doi:10.1021/acssynbio.7b00057).

B1: Pistol ribozyme (parent)
chain: GGGUCGUUGUUCCAUAAUCGCGUGGAUAUGGCACGCAAGUUUCUACCGGGCACCGUAAAUGUCCGACUGGAGCCGUUCGGGCGGCUAUAAACAGACCUCAGGCCCGAAGCGUGGCGGCACCUGCCGCCGGUGGUAAAAAAGAUCGGAAGAGCACACGUCU

Variants of: B1
Experiment: aptazyme ON/OFF ratio, guanine; higher = stronger switching; co-transcriptional cleavage with and without guanine

Variant | aptazyme ON/OFF ratio
U7C U8A G9A U10G U11G C12U C13G | 1.14
U7C U8A G9A U10G U11G C12U C13U | 1.2
U7C U8A G9A U10G U11G C12U C13A | 1.11
U7C U8A G9A U10G U11G C12G C13A | 1.21
U7C U8A G9A U10G U11G C12G C13G | 1.23
U7C U8A G9A U10G U11G C12G C13U | 1.2
U7C U8A G9A U10G U11C C12G C13A | 1.13
U7C U8A G9A U10G U11C C12G C13G | 1.21
U7C U8A G9A U10G U11C C12G C13U | 1.25
U7C U8A G9A U10G U11C C12A C13A | 1.15
U7C U8A G9A U10G U11C C12A C13G | 1.1
U7C U8A G9A U10G U11C C12A C13U | 1.18
U7C U8A G9A U10G U11C | 1.03
U7C U8A G9A U10G U11G | 1.04
U7C U8A G9A U11G C12U C13U | 1.18
U7C U8A G9A U11G C12U C13G | 1.14
U7C U8A G9A U11G C12U C13A | 1.16
U7C U8A G9A U11C C13A | 1.04
U7C U8A G9A U11C C13G | 1.02
U7C U8A G9A U11C C13U | 1.05
U7C U8A G9C U10A U11G C12A C13A | 1.13

Variant | aptazyme ON/OFF ratio
U7C U8A G9C U10A U11G C12A C13G | 1.12
U7C U8A G9C U10A U11G C12A C13U | 1.14
U7C U8A G9A U11G C12A C13U | 1.09
U7C U8A G9A U11G C12A C13G | 1.21
U7C U8A G9A U11G C12A C13A | 1.19
U7C U8A G9A U11A C12U C13U | 1.27
U7C U8A G9A U11A C12U C13G | 1.18
U7C U8A G9A U11A C12U C13A | 1.32
U7C U8A G9A U11A C12A C13G | 1.22
U7C U8A G9A U11A C12A C13A | 1.17
U7C U8A G9A U11A C12A C13U | 1.08
U7C U8A G9C U10A U11G C12G C13U | 1.1
U7C U8A G9C U10A U11G C12G C13G | 1.15
U7C U8A G9C U10A U11G C12G C13A | 1.1
U7C U8A G9A U11C C12G C13A | 1.16
U7C U8A G9A U11C C12G C13G | 1.12
U7C U8A G9A U11C C12G C13U | 1.18
U7C U8A G9A U11G C13G | 1.04
U7C U8A G9A U11G C13U | 1.25
U7C U8A G9A U11G C13A | 1.18
U7C U8A G9C U10A U11C C12G C13U | 1.36

Variant | aptazyme ON/OFF ratio
U7C U8A G9C U10A U11C C12G C13A | 1.29
U7C U8A G9C U10A U11C C12G C13G | 1.29
U7C U8A G9C U10A U11A C13G | 1.15
U7C U8A G9C U10A U11A C13A | 1.2
U7C U8A G9C U10A U11A C13U | 1.19
U7C U8A G9C U10A U11G C13G | 1.02
U7C U8A G9C U10A U11G C13A | 1.12
U7C U8A G9C U10A U11G C13U | 1.16
U7C U8A G9A U11A C12G C13U | 1.19
U7C U8A G9A U11A C12G C13G | 1.19
U7C U8A G9A U11A C12G C13A | 1.15
U7C U8A G9C U10A U11A C12U C13A | 1.05
U7C U8A G9C U10A U11A C12U C13G | 1.1
U7C U8A G9C U10A U11A C12U C13U | 1.11
U7C U8A G9C U10A C12G C13A | 1.11
U7C U8A G9C U10A C12G C13G | 1.21
U7C U8A G9C U10A C12G C13U | 1.26
U7C U8A G9C U10A U11C C12U | 1.08
U7C U8A G9C U10A U11C C12G | 1.2
U7C U8A G9C U10A U11C C12A | 1.28
U7C U8A G9A U11C C12U C13A | 1.17

Variant | aptazyme ON/OFF ratio
U7C U8A G9A U11C C12U C13U | 1.2
U7C U8A G9A U11C C12U C13G | 1.09
U7C U8A G9A U11A C13A | 1.17
U7C U8A G9A U11A C13U | 1.14
U7C U8A G9A U11A C13G | 1.04
U7C U8A G9A U11C C12A | 1.23
U7C U8A G9A U11C C12G | 1.16
U7C U8A G9A U11C C12U | 1.13
U7C U8A G9A U10G U11C C13G | 1.05
U7C U8A G9A U10G U11C C13A | 1.05
U7C U8A G9A U10G U11C C13U | 1
U7C U8A G9C U10A C12U C13G | 1.11
U7C U8A G9C U10A C12U C13U | 1.06
U7C U8A G9C U10A C12U C13A | 1.09
U7C U8A G9A U11A C12A | 1.2
U7C U8A G9A U11A C12G | 1.2
U7C U8A G9A U11A C12U | 1.25
U7C U8A G9C U10A U11C C12A C13U | 1.15
U7C U8A G9C U10A U11C C12A C13G | 1.14
U7C U8A G9C U10A U11C C12A C13A | 1.19
